# Reference: patent US20250163127A1 (published 2025)
# T1: TIGIT (human, UniProt Q495A1)
# T1 sequence: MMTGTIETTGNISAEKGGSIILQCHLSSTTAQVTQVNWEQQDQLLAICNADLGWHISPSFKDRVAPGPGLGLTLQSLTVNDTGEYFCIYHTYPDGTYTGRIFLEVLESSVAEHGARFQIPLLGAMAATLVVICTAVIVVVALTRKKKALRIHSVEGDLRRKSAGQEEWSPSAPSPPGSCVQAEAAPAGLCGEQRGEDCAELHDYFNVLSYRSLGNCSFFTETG
# B1: CD155 665-ICOSL 2264-ICOSL 2264-CD155 665 (other)
# chain: WPPPGTGDVVVQAPTQVSGFLGDSVTLPCYLQVPNMEVTHVSQLTWARHGESGSMAVFHQTQGPWYAESKRLEFVAARLGAELRNASLRVFGLRAEDEGNYTCQFVTFPQRSRSVDIWLRVLGGGGSGGGGTGGGGSDTQEKEVRAMVGSDVELSCACPEGSRFDLNDVYVYWQTSESKTVVTYHIPQHSSLEYVDSRYRNRALMSPAGMLRGDFSLRLFNVTPQDEQKFHCLVLSRSLGFQEVLSVEVTLHVAANFSVGGGGSGGGGSGGGGSDTQEKEVRAMVGSDVELSCACPEGSRFDLNDVYVYWQTSESKTVVTYHIPQHSSLEYVDSRYRNRALMSPAGMLRGDFSLRLFNVTPQDEQKFHCLVLSRSLGFQEVLSVEVTLHVAANFSVGSGGSGGGGSGGGGSWPPPGTGDVVVQAPTQVSGFLGDSVTLPCYLQVPNMEVTHVSQLTWARHGESGSMAVFHQTQGPWYAESKRLEFVAARLGAELRNASLRVFGLRAEDEGNYTCQFVTFPQRSRSVDIWLRVLGSGGGGSDYKDDDDKHHHHHH
# Tests used:
# CD28 = CD28 (human, UniProt P10747); assay: cell-based or functional assay
# TIGIT = target: T1, TIGIT; assay: cell-based or functional assay
binder,measurement,setting,value
B1,"100 nM IFN-gamma (pg/mL), SEB assay",CD28,2120 pg/mL
same,"100 nM IFN-gamma (pg/mL), SEB assay",TIGIT,2120 pg/mL
